Data from the DeepSol protein solubility set.

Experiment: soluble on expression in E. coli; label from the status in PepcDB or PDB records

Sequence | soluble on expression in E. coli
MDAVNKFSVENWYPHLRKHTFKSHFITLNYNDIHYLMGNIPPDYDSSKLESIFNKILSEFNNKEVFMRLSTRSPKDSKFLFEEASTIMSKDFVYWNENDNKHQQLVSFVASMLKAMKIKSGRKIIETIAQSPRVYNDLLALVSSSNQSDCTTNVILREWHDIRPDHEFRVFVSRRHRKESIVTAISQYFHFLYFDKSPADCFNFLDEEDKKAVIKKFENYVLKSVDPDVAKFLNFSSEQDDDESSDCIREYIVDLALIPVSQYHGEITDENIIEIGANTYVMVVIELNPFAPAATGSGLFNWKNDLMMLWGKASCDYPVFKYRTTPREDLQSVSLLPSNYESVIKSALIKRLETLEHHHHHH | not soluble
MDCDIASYHVDSFDFLVSKGCQFAAQAVPAEKFRLKNGDAVTMKFTSAQLHKPTLDTGAKLTSDTLPLLPAECRQRGLTYAGNLKVGIDVHVNGSRLDIIEIILGKVPIMLRSEGCHLRGMSRKELVVAGEEPIEKGGYFIVNGSEKVIRLLIANRRNFPIAIIRKTFKEKGKLFSEFGVMMRSVKENHTAVMMTLHYLDTGTMQLALQFRREIFYVPLMYIVKALTDKNDAVISAGFKRGRNQDQFYSSCILNMLAQCQEEEILNQEAAIRAIGSRFRVAVSDRVAPWEDDLEAGRFIIRECVLIHLDSDEEKFHTLAYMTQKLIALVKGECAPETPDNPQFQEASVSGHILLLILRERMENIIGMVRRKLEYMSSRKDFILTSAAILKALGNHTGGEITRGMAYFLATGNLVTRVGLALQQESGFSVIAERINQLRFVSHFRAIHRGAFFMEMRTTDVRKLRPEAWGFICPVHTPDGAPCGLLNHVTASCRIVTDLSDNSNVPSLLAELGMYTHKTVALAPPGEELYPVLMNGRFLGYVPITKAASIERYLRCAKVAKDARIPYTSEIALVRRSTDIKNIQTQYPGIYILSDAGRLIRPVRNLAMDAVEHIGTFEQVYLSVVLDPEEAEPGVTMHQELHPSCLFSFAGNLIPFPDHNQSPRNVYQCQMGKQTMGTAVHAWHSRADNKMYRLQFPQQPMLKLEAYEKYEMDEYPLGTNACVAVISYTGYDMEDAMTINKASYQRGFAHGTVIKVERINLVTERERKTIFYRNPREEIKTVGPDGLPIPGRRYFLDEVYYVTFNMETGDFRTHKFHYAEPAYCGLVRIVEQGEGDSGAKHALIQWRIERNPIIGDKFASRHGQKGINSFLWPVESLPFSETGMVPDIIFNPHGFPSRMTIGMMIESMAGKAAATHGENYDASPFVFNEDNTAINHFGELLTKAGYNYYGNETFYSGVDGRQMEMQIFFGIVYYQRLRHMIADKFQVRATGPIDPITHQPVKGRKKGGGIRFGEMERDAIIAHGTSFVLQDRLLNCSDRDVAYACRRCGSLLSVLMSSRAGSHLLKKKRKDDEPLDYTETQRCRTCDKDDQVFLLQVPRVFRYLTAELAAMNVKIKLGIEHPSKVTGS | not soluble
MDDATKSSLKAIPLCKTKASPRDGDLWIERLKEEYEAIIAAVQNNKDCDRDWFQLESNERGTKWFGKCWYFHNMVKYEFDVEFDIPITYPVTAPEIALPELDGKTAKMYRGGKICLSEHFKPLWARNTPKFGIAHAFALGLGPWMAVEIPDLIEKGLIQPKA | not soluble
MDDPKQPTWNVSPSLRRHARELRKKSTEAERLMWGELRDKRLNGFSFKRQVPIGPYIADFACHAKKLVVELDGGQHFSDDGERSDAARTAAIEARGFRVIRFSNHEVMTNRAGVLQSIADVLAARVLTPTLSRKRERERAKRAAKPRSDAGAANDQGDE | not soluble
MDDSQESSFSVSKYETNDDGSMGQFISINECEREIQMLERDIRQQKESSANAKTAITFDQLRKIHTLSTLLGPHKELFFDRICRAADIQRASLKNRLKSNINKFEPSTPLSFQPGFDSQSSLSTTSESQNFVVTPTTLSSLLNNHTRKNHIEMLAPLASEEELMRFPAERQFDLMQIGFSYDEVKQLLEMFEKFKNDVQEINRLHTLTQILNQFCNYISMYAPPNLKMISSAFNLLELGNSAHEVKRVLLKARRREESEESDVSFSKKPRPSSRSPASPNRDDLLLGLDRSPPSDDGTQKV | not soluble
MDEDVLPGEVLAIEGIFMACGLNEPEYLYHPLLSPIKLYITGLMRDKESLFEAMLANVRFHSTTGIDQLGLSMLQVSGDGNMNWGRALAILTFGSFVAQKLSNEPHLRDFALAVLPAYAYEAIGPQWFRARGGWRGLKAYCTQVLTDDDDLEHHHHHH | soluble
MDEEKIVLIGNESDLLHCGYNFALRAGGKRYPSAAHYTHYQILMSLNLPETAVEELLCTNSCDVHQKALVILQENMPDGHTINSLAAYLSESLRSYSIHALQLRAESDKDFEKTLMKTNEALLIVCDEKNPQLGIGMNDKTFMEWMAKEKADSRQISYWMKNEHTKPADLGQNKLGQYLMWLRFEIRERKKQGILTRPVVEVAGLSTDKDDEPIMISINDLVISLEGIFRPLSNYYAFPFEMKRERYRSVEHYAYEKLFNSLKLDEKAIEKIQTTPAPLNVPVVASKLLRKLEINPETIAEKTSKMDRWRQSAMKHKIYHNEYLQQLLLSTGSAILIDSSLGDPLWTCGATEVELQHLLTKSYVTPEKLVGWMLDGEETNTPKSVRHLYGNKSGLLLMELREKLSLQTTSRIPLVKLSKMNLNPLSGIVTPNVICFTPESVFHPLYPAEIRCSADGPPLPSPVHYVATQAAKFLSMNQEDTEYILEGPSSIQCWSRLHEVIESRGRGLELEQTWWMDKRMQFIKESLQLLLEQHPALLRALLDTGDSMLVYCSRFSSMDAELSMGMREMDFRYWLQEVDLTTKQLIELCTRPMAFRPPYIGGNRLGMILMELRREFVLQGVFPQQLPELQLTADSILGSNSPTENFMTSEYFDILQPWNYTALWINPLFLLAKDGNQEAMAQCTRIKTAPRMVTIDDEKVTDIVENLVNDETQEEALNSIAPEDLRAVFMKLCARLRGKIETLDRQSMELSMVAMETHRLQSIRRSLADTAERAETEGPSSSTGPSISAPPIPSRPGHSNYRMAAGRERDREEEREKDRERLQSQLSTSSSGPQGSASRKERMEYKIPTTSRRKFGKDRDRLPEKSSSDRGRDKHLDTPTKKRVNQSPPSRKAAPSPAKKPAISTSTPAVVVPPKPKRDPEEELSDGEILSTDEEDN | not soluble
MDERRFFRDVCAEWMEQYRLTVRESTLEKTQRIINIHVLPAFGDMVINNITPNVCQKVVNKWFLEAKSYKKWLNYASMIFDYALRAEYVGRNPCTLVTMPRVQEQAGEKLEHHHHHH | not soluble
MDEVANALAVSQTMMEKMQKLEISKNYDVEKFETLLRLPARDVNTFMEKEAKKTDDEKMTDMDRRIKRIREDKTDRAARTLQKYFRKIRVKGEQNHINKRISKIPAKRRVVLLEQIRQKMGEQQPIRRFGGYQVIRAVELHKGKQKLQKDWLAKLSIDVNFHDKNLSRPNSPTHFIANSIPTLIRKKAEMKHAEKMQEIDSSIMDIYCGFQKDNLH | not soluble
MDGDGDPESVSHPEEASPEEQPEEAGAEASAEEEQLREAEEEEEAEAVEYLAELPEPLLLRVLAELPATELVQACRLVCLRWKELVDGAPLWLLKCQQEGLVPEGSADEERDHWQQFYFLSKRRRNLLRNPCGEEDLEGWSDVEHGGDGWKVEELPGDNGVEFTQDDSVKKYFASSFEWCRKAQVIDLQAEGYWEELLDTTQPAIVVKDWYSGRTDAGSLYELTVRLLSENEDVLAEFATGQVAVPEDGSWMEISHTFIDYGPGVRFVRFEHGGQDSVYWKGWFGARVTNSSVWVEP | soluble
MDGILSHNSKKTADFDEYELYRRLKSWYKEDVEHVNEWREQAREDFDFYNGRQWAEEDLAVLKAQRRPVMTFNRIAPLVNAIVGAERNNKREVQFQPRQAGAAISNELLTGAAEWFRDEAEAEYADSDAFQDMVICGMGWTDTRLDYETDPEGIPAIQRLDPLKMVWDANAVRPNLIDAQRMWYVDRKPVEDAKSLFPDVAVEDLHADWATDNTTACEEYHVSLDAYNDHANADSLSQSASEKRYVTLVECRWFEYEVYFKAPDLQTGQMRSYSKQEFEQLQRVAPQLQGVRFNKKVVKRAFLGRRLLAKPDKPLAPDGQLGWECITGTLDKLKNQFYGIVRPAKDPQKWSNKYFSQVMYILNSQAKGGLMAERGAFDDERQALENWTRTDTITWVKNGALTGGKIQPKPSAQFPNGFFQLFNESREAITHVTGLSAEFIGTREVNQANVLENTRRQSTLNLLAGLFDNLKLYRCRQGKIILYLIQNYLSDGRLVRISGPENAQYVPLTREAVTKLEYDIIVDDSPTSPNEKERTFAAITQMLPLLGGFLTPEMIPDLLKLSPLPATLVANLTAKAQQAQQEQQQQQMMQQNQGTQLNPEQQAKIAALQQEAQAKGTLYQLDAQQKQLALQQKNIELFLKQEQARMQLELQRAKNEIAQRDLERKSLQAQLEHYRVLTKRLIPH | not soluble
